B1: DNA polymerase delta catalytic subunit (Saccharomyces cerevisiae), P15436 (parent)
chain: MSEKRSLPMVDVKIDDEDTPQLEKKIKRQSIDHGVGSEPVSTIEIIPSDSFRKYNSQGFKAKDTDLMGTQLESTFEQELSQMEHDMADQEEHDLSSFERKKLPTDFDPSLYDISFQQIDAEQSVLNGIKDENTSTVVRFFGVTSEGHSVLCNVTGFKNYLYVPAPNSSDANDQEQINKFVHYLNETFDHAIDSIEVVSKQSIWGYSGDTKLPFWKIYVTYPHMVNKLRTAFERGHLSFNSWFSNGTTTYDNIAYTLRLMVDCGIVGMSWITLPKGKYSMIEPNNRVSSCQLEVSINYRNLIAHPAEGDWSHTAPLRIMSFDIECAGRIGVFPEPEYDPVIQIANVVSIAGAKKPFIRNVFTLNTCSPITGSMIFSHATEEEMLSNWRNFIIKVDPDVIIGYNTTNFDIPYLLNRAKALKVNDFPYFGRLKTVKQEIKESVFSSKAYGTRETKNVNIDGRLQLDLLQFIQREYKLRSYTLNAVSAHFLGEQKEDVHYSIISDLQNGDSETRRRLAVYCLKDAYLPLRLMEKLMALVNYTEMARVTGVPFSYLLARGQQIKVVSQLFRKCLEIDTVIPNMQSQASDDQYEGATVIEPIRGYYDVPIATLDFNSLYPSIMMAHNLCYTTLCNKATVERLNLKIDEDYVITPNGDYFVTTKRRRGILPIILDELISARKRAKKDLRDEKDPFKRDVLNGRQLALKISANSVYGFTGATVGKLPCLAISSSVTAYGRTMILKTKTAVQEKYCIKNGYKHDAVVVYGDTDSVMVKFGTTDLKEAMDLGTEAAKYVSTLFKHPINLEFEKAYFPYLLINKKRYAGLFWTNPDKFDKLDQKGLASVRRDSCSLVSIVMNKVLKKILIERNVDGALAFVRETINDILHNRVDISKLIISKTLAPNYTNPQPHAVLAERMKRREGVGPNVGDRVDYVIIGGNDKLYNRAEDPLFVLENNIQVDSRYYLTNQLQNPIISIVAPIIGDKQANGMFVVKSIKINTGSQKGGLMSFIKKVEACKSCKGPLRKGEGPLCSNCLARSGELYIKALYDVRDLEEKYSRLWTQCQRCAGNLHSEVLCSNKNCDIFYMRVKVKKELQEKVEQLSKW
partner: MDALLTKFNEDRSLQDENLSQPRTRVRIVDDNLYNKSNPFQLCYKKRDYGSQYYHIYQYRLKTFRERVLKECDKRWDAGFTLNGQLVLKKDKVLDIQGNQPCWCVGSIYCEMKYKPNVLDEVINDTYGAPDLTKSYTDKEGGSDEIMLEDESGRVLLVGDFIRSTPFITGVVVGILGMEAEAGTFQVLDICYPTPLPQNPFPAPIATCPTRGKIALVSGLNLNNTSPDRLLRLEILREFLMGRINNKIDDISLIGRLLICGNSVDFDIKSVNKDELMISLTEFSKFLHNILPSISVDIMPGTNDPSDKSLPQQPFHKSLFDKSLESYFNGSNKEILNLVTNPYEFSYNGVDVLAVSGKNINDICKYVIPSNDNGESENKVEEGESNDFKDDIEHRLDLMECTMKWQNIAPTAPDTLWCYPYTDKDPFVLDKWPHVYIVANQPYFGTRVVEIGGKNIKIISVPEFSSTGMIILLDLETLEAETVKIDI
B2: DNA polymerase delta catalytic subunit (Schizosaccharomyces pombe (strain ATCC 38366 / 972)), P30316 (parent)
chain: MTDRSSNEGVVLNKENYPFPRRNGSIHGEITDVKRRRLSERNGYGDKKGSSSKEKTSSFEDELAEYASQLDQDEIKSSKDQQWQRPALPAINPEKDDIYFQQIDSEEFTEGSVPSIRLFGVTDNGNSILVHVVGFLPYFYVKAPVGFRPEMLERFTQDLDATCNGGVIDHCIIEMKENLYGFQGNEKSPFIKIFTTNPRILSRARNVFERGEFNFEELFPVGVGVTTFESNTQYLLRFMIDCDVVGMNWIHLPASKYQFRYQNRVSNCQIEAWINYKDLISLPAEGQWSKMAPLRIMSFDIECAGRKGVFPDPSIDPVIQIASIVTQYGDSTPFVRNVFCVDTCSQIVGTQVYEFQNQAEMLSSWSKFVRDVDPDVLIGYNICNFDIPYLLDRAKSLRIHNFPLLGRIHNFFSVAKETTFSSKAYGTRESKTTSIPGRLQLDMLQVMQRDFKLRSYSLNAVCSQFLGEQKEDVHYSIITDLQNGTADSRRRLAIYCLKDAYLPQRLMDKLMCFVNYTEMARVTGVPFNFLLARGQQIKVISQLFRKALQHDLVVPNIRVNGTDEQYEGATVIEPIKGYYDTPIATLDFSSLYPSIMQAHNLCYTTLLDSNTAELLKLKQDVDYSVTPNGDYFVKPHVRKGLLPIILADLLNARKKAKADLKKETDPFKKAVLDGRQLALKVSANSVYGFTGATNGRLPCLAISSSVTSYGRQMIEKTKDVVEKRYRIENGYSHDAVVIYGDTDSVMVKFGVKTLPEAMKLGEEAANYVSDQFPNPIKLEFEKVYFPYLLISKKRYAGLFWTRTDTYDKMDSKGIETVRRDNCPLVSYVIDTALRKMLIDQDVEGAQLFTKKVISDLLQNKIDMSQLVITKALSKTDYAAKMAHVELAERMRKRDAGSAPAIGDRVAYVIIKGAQGDQFYMRSEDPIYVLENNIPIDAKYYLENQLSKPLLRIFEPILGEKASSLLHGDHTRTISMAAPSVGGIMKFAVKVETCLGCKAPIKKGKTALCENCLNRSAELYQRQVAQVNDLEVRFARLWTQCQRCQGSMHQDVICTSRDCPIFYMRIAEHKKLQQSVDLLKRFDEMSW
partner: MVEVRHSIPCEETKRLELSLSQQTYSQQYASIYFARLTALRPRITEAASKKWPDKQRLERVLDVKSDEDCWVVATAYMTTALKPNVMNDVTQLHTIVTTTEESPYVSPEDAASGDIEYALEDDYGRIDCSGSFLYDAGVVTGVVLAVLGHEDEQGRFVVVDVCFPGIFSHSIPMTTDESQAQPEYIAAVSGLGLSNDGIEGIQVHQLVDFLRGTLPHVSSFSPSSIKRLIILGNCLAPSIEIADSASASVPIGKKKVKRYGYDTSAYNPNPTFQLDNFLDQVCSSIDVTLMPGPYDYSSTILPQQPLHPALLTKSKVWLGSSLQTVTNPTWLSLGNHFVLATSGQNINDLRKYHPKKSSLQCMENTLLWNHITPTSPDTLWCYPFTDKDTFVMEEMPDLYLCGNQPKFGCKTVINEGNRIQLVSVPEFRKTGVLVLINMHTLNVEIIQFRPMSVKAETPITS
B3: DNA polymerase delta small subunit (Saccharomyces cerevisiae), P46957 (parent)
chain: B1 partner
partner: B1 chain

Variants of: B1
Details: with dpod2_yeast POL31, P46957

effect of a mutation on the interaction | Variant
decreasing interaction | E1047A
decreasing interaction | H1064A
decreasing interaction | C1069A
decreasing interaction | Q1057A
decreasing interaction | C1059A
decreasing interaction | C1074A
decreasing interaction | C1056A
decreasing interaction | R1058A

Variants of: B2
Details: with dpod2_schpo cdc1, P87324

effect of a mutation on the interaction | Variant
decreasing interaction | C1040A
decreasing interaction | C1043A
decreasing interaction | C1053A
decreasing interaction | C1058A
decreasing interaction | C1058S

Variants of: B3
Details: with dpod_yeast POL3, P15436

effect of a mutation on the interaction | Variant
increasing interaction | MDALLTKFNEDRSLQDENLSQPRTRVRIVDDNLYNKSNPFQLCYKKRDYGSQYYHIYQYRLKTFRERVLKECDKRWDAGFTLNGQLVLKKDKVLDIQGNQPCWCVGSIYCEMKYKPNVLDEVINDTYGAPDLTKSYTDKEGGSDEIMLEDESGRVLLVGDFIRSTPFITGVVVGILGMEAEAGTFQVLDICYPTPLPQNPFPAPIATCPTRGKIALVSGLNLNNTSPDRLLRLEILREFLMGRINNKIDDISLIGRLLICGNSVDFDIKSVNKDELMISLTEFSKFLHNILPSISVDIMPGTNDPSDKSLPQQPFHKSLFDKSLESYFNGSNKEILNLVTNPYEFSYNGVDVLAVSGENINDICKYVIPSNDNGESENKVEEGESNDFKDDIEHRLDLMECTMKWQNIAPTAPDTLWCYPYTDKDPFVLDKWPHVYIVANQPYFGTRVVEIGGKNIKIISVPEFSSTGMIILLDLETLEAETVKIDI [K358E]

Reference: IntAct's records for PubMed 15173383
